Laboratory results from patent US20210388087A1.

Biological target: Human CD3eg linker (human)
Test: SPR; fold vs parent H183/L072

Chain of Human CD3eg linker (human) (chain, as listed by the source limits assumed): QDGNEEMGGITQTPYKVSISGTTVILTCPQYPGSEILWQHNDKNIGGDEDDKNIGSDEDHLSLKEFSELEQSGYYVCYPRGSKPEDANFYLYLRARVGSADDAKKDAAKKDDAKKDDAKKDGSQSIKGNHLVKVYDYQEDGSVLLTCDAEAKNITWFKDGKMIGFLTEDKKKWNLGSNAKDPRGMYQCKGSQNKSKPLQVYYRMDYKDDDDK

| fold change of affinity | Binder |
| --- | --- |
| 0 fold | H183/L072 VL K50M (antibody, name in Kabat numbering, V domains shown) VH: QVQLVESGGGLVQPGRSLRLSCAASGFTFSNAWMHWVRQAPGKGLEWVAQIKDKGNAYAAYYAPSVKGRFTISRDDSKNSIYLQMNSLKTEDTAVYYCHYVHYASASTVLPAFGVDAWGQGTTVTVSS VL: DIVMTQSPLSLPVTPGEPASISCQASQELVHMNRNTYLHWYQQKPGQAPRLLIYMVSNRFPGVPDRFSGSGSGTDFTLKISRVEAEDVGVYYCAQGTSVPFTFGQGTKLEIK |
| 0 fold | H183/L072 VL F96P (antibody, name in Kabat numbering, V domains shown) VH: QVQLVESGGGLVQPGRSLRLSCAASGFTFSNAWMHWVRQAPGKGLEWVAQIKDKGNAYAAYYAPSVKGRFTISRDDSKNSIYLQMNSLKTEDTAVYYCHYVHYASASTVLPAFGVDAWGQGTTVTVSS VL: DIVMTQSPLSLPVTPGEPASISCQASQELVHMNRNTYLHWYQQKPGQAPRLLIYKVSNRFPGVPDRFSGSGSGTDFTLKISRVEAEDVGVYYCAQGTSVPPTFGQGTKLEIK |
| 0 fold | H183/L072 VL K50P (antibody, name in Kabat numbering, V domains shown) VH: QVQLVESGGGLVQPGRSLRLSCAASGFTFSNAWMHWVRQAPGKGLEWVAQIKDKGNAYAAYYAPSVKGRFTISRDDSKNSIYLQMNSLKTEDTAVYYCHYVHYASASTVLPAFGVDAWGQGTTVTVSS VL: DIVMTQSPLSLPVTPGEPASISCQASQELVHMNRNTYLHWYQQKPGQAPRLLIYPVSNRFPGVPDRFSGSGSGTDFTLKISRVEAEDVGVYYCAQGTSVPFTFGQGTKLEIK |
| 0 fold | H183/L072 VL S93P (antibody, name in Kabat numbering, V domains shown) VH: QVQLVESGGGLVQPGRSLRLSCAASGFTFSNAWMHWVRQAPGKGLEWVAQIKDKGNAYAAYYAPSVKGRFTISRDDSKNSIYLQMNSLKTEDTAVYYCHYVHYASASTVLPAFGVDAWGQGTTVTVSS VL: DIVMTQSPLSLPVTPGEPASISCQASQELVHMNRNTYLHWYQQKPGQAPRLLIYKVSNRFPGVPDRFSGSGSGTDFTLKISRVEAEDVGVYYCAQGTPVPFTFGQGTKLEIK |
| 0 fold | H183/L072 VL F96V (antibody, name in Kabat numbering, V domains shown) VH: QVQLVESGGGLVQPGRSLRLSCAASGFTFSNAWMHWVRQAPGKGLEWVAQIKDKGNAYAAYYAPSVKGRFTISRDDSKNSIYLQMNSLKTEDTAVYYCHYVHYASASTVLPAFGVDAWGQGTTVTVSS VL: DIVMTQSPLSLPVTPGEPASISCQASQELVHMNRNTYLHWYQQKPGQAPRLLIYKVSNRFPGVPDRFSGSGSGTDFTLKISRVEAEDVGVYYCAQGTSVPVTFGQGTKLEIK |
| 0 fold | H183/L072 VL A89P (antibody, name in Kabat numbering, V domains shown) VH: QVQLVESGGGLVQPGRSLRLSCAASGFTFSNAWMHWVRQAPGKGLEWVAQIKDKGNAYAAYYAPSVKGRFTISRDDSKNSIYLQMNSLKTEDTAVYYCHYVHYASASTVLPAFGVDAWGQGTTVTVSS VL: DIVMTQSPLSLPVTPGEPASISCQASQELVHMNRNTYLHWYQQKPGQAPRLLIYKVSNRFPGVPDRFSGSGSGTDFTLKISRVEAEDVGVYYCPQGTSVPFTFGQGTKLEIK |
| 0 fold | H183/L072 VL S52P (antibody, name in Kabat numbering, V domains shown) VH: QVQLVESGGGLVQPGRSLRLSCAASGFTFSNAWMHWVRQAPGKGLEWVAQIKDKGNAYAAYYAPSVKGRFTISRDDSKNSIYLQMNSLKTEDTAVYYCHYVHYASASTVLPAFGVDAWGQGTTVTVSS VL: DIVMTQSPLSLPVTPGEPASISCQASQELVHMNRNTYLHWYQQKPGQAPRLLIYKVPNRFPGVPDRFSGSGSGTDFTLKISRVEAEDVGVYYCAQGTSVPFTFGQGTKLEIK |
| 0 fold | H183/L072 VL Q90V (antibody, name in Kabat numbering, V domains shown) VH: QVQLVESGGGLVQPGRSLRLSCAASGFTFSNAWMHWVRQAPGKGLEWVAQIKDKGNAYAAYYAPSVKGRFTISRDDSKNSIYLQMNSLKTEDTAVYYCHYVHYASASTVLPAFGVDAWGQGTTVTVSS VL: DIVMTQSPLSLPVTPGEPASISCQASQELVHMNRNTYLHWYQQKPGQAPRLLIYKVSNRFPGVPDRFSGSGSGTDFTLKISRVEAEDVGVYYCAVGTSVPFTFGQGTKLEIK |
| 0 fold | H183/L072 VL V51P (antibody, name in Kabat numbering, V domains shown) VH: QVQLVESGGGLVQPGRSLRLSCAASGFTFSNAWMHWVRQAPGKGLEWVAQIKDKGNAYAAYYAPSVKGRFTISRDDSKNSIYLQMNSLKTEDTAVYYCHYVHYASASTVLPAFGVDAWGQGTTVTVSS VL: DIVMTQSPLSLPVTPGEPASISCQASQELVHMNRNTYLHWYQQKPGQAPRLLIYKPSNRFPGVPDRFSGSGSGTDFTLKISRVEAEDVGVYYCAQGTSVPFTFGQGTKLEIK |
| 0 fold | H183/L072 VL G91P (antibody, name in Kabat numbering, V domains shown) VH: QVQLVESGGGLVQPGRSLRLSCAASGFTFSNAWMHWVRQAPGKGLEWVAQIKDKGNAYAAYYAPSVKGRFTISRDDSKNSIYLQMNSLKTEDTAVYYCHYVHYASASTVLPAFGVDAWGQGTTVTVSS VL: DIVMTQSPLSLPVTPGEPASISCQASQELVHMNRNTYLHWYQQKPGQAPRLLIYKVSNRFPGVPDRFSGSGSGTDFTLKISRVEAEDVGVYYCAQPTSVPFTFGQGTKLEIK |
| 0 fold | H183/L072 VL Q90P (antibody, name in Kabat numbering, V domains shown) VH: QVQLVESGGGLVQPGRSLRLSCAASGFTFSNAWMHWVRQAPGKGLEWVAQIKDKGNAYAAYYAPSVKGRFTISRDDSKNSIYLQMNSLKTEDTAVYYCHYVHYASASTVLPAFGVDAWGQGTTVTVSS VL: DIVMTQSPLSLPVTPGEPASISCQASQELVHMNRNTYLHWYQQKPGQAPRLLIYKVSNRFPGVPDRFSGSGSGTDFTLKISRVEAEDVGVYYCAPGTSVPFTFGQGTKLEIK |
| 0 fold | H183/L072 VL Q90M (antibody, name in Kabat numbering, V domains shown) VH: QVQLVESGGGLVQPGRSLRLSCAASGFTFSNAWMHWVRQAPGKGLEWVAQIKDKGNAYAAYYAPSVKGRFTISRDDSKNSIYLQMNSLKTEDTAVYYCHYVHYASASTVLPAFGVDAWGQGTTVTVSS VL: DIVMTQSPLSLPVTPGEPASISCQASQELVHMNRNTYLHWYQQKPGQAPRLLIYKVSNRFPGVPDRFSGSGSGTDFTLKISRVEAEDVGVYYCAMGTSVPFTFGQGTKLEIK |
| 0 fold | H183/L072 VL P95M (antibody, name in Kabat numbering, V domains shown) VH: QVQLVESGGGLVQPGRSLRLSCAASGFTFSNAWMHWVRQAPGKGLEWVAQIKDKGNAYAAYYAPSVKGRFTISRDDSKNSIYLQMNSLKTEDTAVYYCHYVHYASASTVLPAFGVDAWGQGTTVTVSS VL: DIVMTQSPLSLPVTPGEPASISCQASQELVHMNRNTYLHWYQQKPGQAPRLLIYKVSNRFPGVPDRFSGSGSGTDFTLKISRVEAEDVGVYYCAQGTSVMFTFGQGTKLEIK |
| 0 fold | H183/L072 VL K50G (antibody, name in Kabat numbering, V domains shown) VH: QVQLVESGGGLVQPGRSLRLSCAASGFTFSNAWMHWVRQAPGKGLEWVAQIKDKGNAYAAYYAPSVKGRFTISRDDSKNSIYLQMNSLKTEDTAVYYCHYVHYASASTVLPAFGVDAWGQGTTVTVSS VL: DIVMTQSPLSLPVTPGEPASISCQASQELVHMNRNTYLHWYQQKPGQAPRLLIYGVSNRFPGVPDRFSGSGSGTDFTLKISRVEAEDVGVYYCAQGTSVPFTFGQGTKLEIK |
| 0 fold | H183/L072 VL G91M (antibody, name in Kabat numbering, V domains shown) VH: QVQLVESGGGLVQPGRSLRLSCAASGFTFSNAWMHWVRQAPGKGLEWVAQIKDKGNAYAAYYAPSVKGRFTISRDDSKNSIYLQMNSLKTEDTAVYYCHYVHYASASTVLPAFGVDAWGQGTTVTVSS VL: DIVMTQSPLSLPVTPGEPASISCQASQELVHMNRNTYLHWYQQKPGQAPRLLIYKVSNRFPGVPDRFSGSGSGTDFTLKISRVEAEDVGVYYCAQMTSVPFTFGQGTKLEIK |
| 0 fold | H183/L072 VL G91V (antibody, name in Kabat numbering, V domains shown) VH: QVQLVESGGGLVQPGRSLRLSCAASGFTFSNAWMHWVRQAPGKGLEWVAQIKDKGNAYAAYYAPSVKGRFTISRDDSKNSIYLQMNSLKTEDTAVYYCHYVHYASASTVLPAFGVDAWGQGTTVTVSS VL: DIVMTQSPLSLPVTPGEPASISCQASQELVHMNRNTYLHWYQQKPGQAPRLLIYKVSNRFPGVPDRFSGSGSGTDFTLKISRVEAEDVGVYYCAQVTSVPFTFGQGTKLEIK |
| 0 fold | H183/L072 VL T92P (antibody, name in Kabat numbering, V domains shown) VH: QVQLVESGGGLVQPGRSLRLSCAASGFTFSNAWMHWVRQAPGKGLEWVAQIKDKGNAYAAYYAPSVKGRFTISRDDSKNSIYLQMNSLKTEDTAVYYCHYVHYASASTVLPAFGVDAWGQGTTVTVSS VL: DIVMTQSPLSLPVTPGEPASISCQASQELVHMNRNTYLHWYQQKPGQAPRLLIYKVSNRFPGVPDRFSGSGSGTDFTLKISRVEAEDVGVYYCAQGPSVPFTFGQGTKLEIK |
| 0 fold | H183/L072 VL K50V (antibody, name in Kabat numbering, V domains shown) VH: QVQLVESGGGLVQPGRSLRLSCAASGFTFSNAWMHWVRQAPGKGLEWVAQIKDKGNAYAAYYAPSVKGRFTISRDDSKNSIYLQMNSLKTEDTAVYYCHYVHYASASTVLPAFGVDAWGQGTTVTVSS VL: DIVMTQSPLSLPVTPGEPASISCQASQELVHMNRNTYLHWYQQKPGQAPRLLIYVVSNRFPGVPDRFSGSGSGTDFTLKISRVEAEDVGVYYCAQGTSVPFTFGQGTKLEIK |
| 0 fold | H183/L072 VL P95V (antibody, name in Kabat numbering, V domains shown) VH: QVQLVESGGGLVQPGRSLRLSCAASGFTFSNAWMHWVRQAPGKGLEWVAQIKDKGNAYAAYYAPSVKGRFTISRDDSKNSIYLQMNSLKTEDTAVYYCHYVHYASASTVLPAFGVDAWGQGTTVTVSS VL: DIVMTQSPLSLPVTPGEPASISCQASQELVHMNRNTYLHWYQQKPGQAPRLLIYKVSNRFPGVPDRFSGSGSGTDFTLKISRVEAEDVGVYYCAQGTSVVFTFGQGTKLEIK |
| 0 fold | H183/L072 VL T97P (antibody, name in Kabat numbering, V domains shown) VH: QVQLVESGGGLVQPGRSLRLSCAASGFTFSNAWMHWVRQAPGKGLEWVAQIKDKGNAYAAYYAPSVKGRFTISRDDSKNSIYLQMNSLKTEDTAVYYCHYVHYASASTVLPAFGVDAWGQGTTVTVSS VL: DIVMTQSPLSLPVTPGEPASISCQASQELVHMNRNTYLHWYQQKPGQAPRLLIYKVSNRFPGVPDRFSGSGSGTDFTLKISRVEAEDVGVYYCAQGTSVPFPFGQGTKLEIK |
| 0 fold | H183/L072 VL F96M (antibody, name in Kabat numbering, V domains shown) VH: QVQLVESGGGLVQPGRSLRLSCAASGFTFSNAWMHWVRQAPGKGLEWVAQIKDKGNAYAAYYAPSVKGRFTISRDDSKNSIYLQMNSLKTEDTAVYYCHYVHYASASTVLPAFGVDAWGQGTTVTVSS VL: DIVMTQSPLSLPVTPGEPASISCQASQELVHMNRNTYLHWYQQKPGQAPRLLIYKVSNRFPGVPDRFSGSGSGTDFTLKISRVEAEDVGVYYCAQGTSVPMTFGQGTKLEIK |
